Legend:
5P+VTG = experiment: luminescence complementation
5P+VT = experiment: luminescence complementation
5P+V = experiment: luminescence complementation
NLpoly 11S (12-A51T) = target: T1, NLpoly 11S (12-A51T); experiment: kinetics (koff/kon)
T1 chain: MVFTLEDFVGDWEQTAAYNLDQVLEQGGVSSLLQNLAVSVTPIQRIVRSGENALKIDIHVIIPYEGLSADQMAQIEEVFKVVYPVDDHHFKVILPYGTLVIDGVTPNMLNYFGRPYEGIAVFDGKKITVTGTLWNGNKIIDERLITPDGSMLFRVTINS

[1] = target: T2, wild-type non-luminescent polypeptide (WT fragment of residues 1-156 of NanoLuc); experiment: kinetics (koff/kon)
T2 chain: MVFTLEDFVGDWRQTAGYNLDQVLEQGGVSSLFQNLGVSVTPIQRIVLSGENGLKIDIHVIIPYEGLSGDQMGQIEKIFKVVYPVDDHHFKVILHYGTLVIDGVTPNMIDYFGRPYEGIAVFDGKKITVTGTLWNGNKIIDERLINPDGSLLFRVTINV

[2] = target: T2, wild-type non-luminescent polypeptide …; experiment: luminescence complementation; average HeLa, HEK293, CHO lysates
[3] = target: T2, wild-type non-luminescent polypeptide …; experiment: luminescence complementation; PBS
[4] = target: T2, wild-type non-luminescent polypeptide …; experiment: luminescence complementation; NanoGlo
[5] = target: T3, NLpoly 5A2 (G15A/G35A/G51A/G67A/G71A); experiment: luminescence complementation, one-site specific binding; replicate 1
T3 chain: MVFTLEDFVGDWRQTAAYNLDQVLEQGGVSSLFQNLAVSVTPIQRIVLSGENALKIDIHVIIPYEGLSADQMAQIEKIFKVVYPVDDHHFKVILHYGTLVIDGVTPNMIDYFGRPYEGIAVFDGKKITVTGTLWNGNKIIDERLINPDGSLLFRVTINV

[6] = target: T3, NLpoly 5A2 (G15A/G35A/G51A/G67A/G71A); experiment: luminescence complementation, one-site specific binding; replicate 3
[7] = target: T3, NLpoly 5A2 (G15A/G35A/G51A/G67A/G71A); experiment: luminescence complementation, one-site specific binding; replicate 2

Binder | Kd (5P+VTG) | Kd (5P+VT) | Kd (5P+V) | Kd (NLpoly 11S (12-A51T)) | Kd [2] | Kd [3] | Kd [4] | also measured
Ac-SGWRLFKKISN-NH2 [NLpep81] | 0.283 µM | 0.218 µM | 0.15 µM |  |  |  |  | 
Ac-GWRLFKKISN-NH2 [NLpep82] | 0.273 µM | 0.198 µM | 0.128 µM |  |  |  |  | 
NVTGYRLFKKISN [NLpep79] |  |  |  | 42 µM | 5.13 µM | 0.487 µM | 2.89 µM | Kd [1]: 5580 µM
Ac-VSGWRLFKKIS-NH2 [NLpep86] |  |  |  |  |  |  |  | Kd [5]: 0.0991 µM; Kd [6]: 0.0933 µM; Kd [7]: 0.11 µM
Ac-VSGWRLFKKISN-NH2 [NLpep80] | 0.0075 µM | 0.0096 µM | 0.0103 µM |  |  |  |  | 
GVTGWRLCERILA [NLpepWT] |  |  |  | 629 µM | 8.35 µM | 1.34 µM | 20.6 µM | 
